Experimental data from US20130034585A1 (BOARD OF SUPERVISORS OF LOUISIANA STATE UNIVERSITY AND …, published 2013).
Residue numbers refer to the chain shown, from its start.

B1: BHV-1 UL49.5Δ30-32 (other)
chain: DPLLDAMGAMDFWSAGCYARGVPLSEPPQALVVFYVALTAVMVAVALYAYGLCFRLMGASGPNKKESRGRG
B2: BHV-1 UL49.5Δ30-32 CT-null (other)
chain: DPLLDAMGAMDFWSAGCYARGVPLSEPPQALVVFYVALTAVMVAVALYAYGLCF
B3: BHV-1 UL49.5 30AAA32 CT-null (other)
chain: DPLLDAMAAAGAMDFWSAGCYARGVPLSEPPQALVVFYVALTAVMVAVALYAYGLCF
B4: BHV-1 UL49.5 CT-null (other)
chain: B3 chain with A8R, A9R, A10E
B5: BHV-1 wt UL49.5 (glycoprotein N) (other)
chain: DPLLDAMRREGAMDFWSAGCYARGVPLSEPPQALVVFYVALTAVMVAVALYAYGLCFRLMGASGPNKKESRGRG
B6: BHV-1 UL49.5 30AAA32 (other)
chain: B5 chain with R8A, R9A, E10A

molecular target: bovine TAP1 (bovine); experiment: cell-based or functional assay

Binder | MHC-I surface expression on infected MDBK cells (FACS) | MHC-I surface expression relative to BHV-1 wt-infected MDBK cells | inhibition of TAP-mediated peptide transport in infected MDBK cells at 8 hpi (FITC peptide, FACS) | peptide transport at 8 hpi relative to BHV-1 wt-infected MDBK cells
B1 | 74.3% | 2 fold | 23% | 4 fold
B2 | 88.6% | 2.5 fold | 7% | ~6 fold
B3 | 89.1% | 2.5 fold | 10% | ~6 fold
B4 | 49.6% | 1.3 fold | 63% | 2.5 fold
B5 | 36.2% | – | 84% | –
B6 | 75% | 2 fold | 27% | 4 fold
